Source: publication doi:10.1101/2021.05.27.445985
pKd: −log10 of the molar value.

Target: Cy5-labeled human neutrophil peptide 1 (HNP1) (human)
Assay: fluorescence polarisation

Bovine serum albumin (from UniProt P02769 25-607) (natural protein)
pKd: 5.47
